Earlier results on 1 substance are cited in paper PMC6225487.

The data set concerns the target TfR (Homo sapiens) (UniProt P02786).

TfR (Homo sapiens), sequence (P02786 89-760): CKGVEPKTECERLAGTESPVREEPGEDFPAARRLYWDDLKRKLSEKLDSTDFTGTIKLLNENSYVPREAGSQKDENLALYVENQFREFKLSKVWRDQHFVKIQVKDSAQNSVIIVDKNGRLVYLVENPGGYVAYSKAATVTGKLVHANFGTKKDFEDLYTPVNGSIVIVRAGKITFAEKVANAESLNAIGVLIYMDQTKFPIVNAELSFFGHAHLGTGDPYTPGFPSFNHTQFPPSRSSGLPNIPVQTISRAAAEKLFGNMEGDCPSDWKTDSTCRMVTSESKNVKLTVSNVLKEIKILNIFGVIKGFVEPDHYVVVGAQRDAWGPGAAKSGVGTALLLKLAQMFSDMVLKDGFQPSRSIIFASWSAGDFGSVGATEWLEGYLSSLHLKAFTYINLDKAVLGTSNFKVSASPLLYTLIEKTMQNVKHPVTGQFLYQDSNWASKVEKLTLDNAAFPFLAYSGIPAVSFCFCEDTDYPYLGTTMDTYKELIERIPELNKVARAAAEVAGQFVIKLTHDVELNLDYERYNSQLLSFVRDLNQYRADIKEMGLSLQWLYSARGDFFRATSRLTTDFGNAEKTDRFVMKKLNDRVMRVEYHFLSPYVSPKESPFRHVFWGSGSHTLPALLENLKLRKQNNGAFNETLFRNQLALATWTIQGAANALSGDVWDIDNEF

By Kd is commonly meant the constant that tells how readily two partners part at equilibrium. Consider T7 peptide, for which the Kd was 10 nM.
